± gives the uncertainty stated by the source.
B1: POU domain, class 3, transcription factor 2, residues 262 to 338; numbered along this chain, P20265 (parent)
chain: EDTPTSDDLEQFAKQFKQRRIKLGFTQADVGLALGTLYGNVFSQTTICRFEALQLSFKNMCKLKPLLNKWLEEADSS

Variants of: B1
Assay: abundance fitness (aPCA) (normalised: wild type 0, dead -1); higher = more abundant; growth selection in yeast, the domain comes from the species named
Conditions: Homo sapiens

Variant	abundance fitness
L37Q	-0.027 ± 0.044
K17R	-0.05 ± 0.023
S76R	0.028 ± 0.028
K14L	-0.058 ± 0.053
L37E	-0.012 ± 0.035
G39E	-0.207 ± 0.036
E1Q	-0.088 ± 0.12
N68M	-0.284 ± 0.27
E1K	-0.105 ± 0.18
L63E	-0.803 ± 0.09
P4F	0.149 ± 0.11
F16N	-0.704 ± 0.13
M60D	-0.961 ± 0.2
L71S	-0.207 ± 0.075
R20K	-1.25 ± 0.35
A28H	-0.116 ± 0.083
S76C	-0.075 ± 0.043
Y38V	-0.103 ± 0.033
L66V	-0.077 ± 0.03
F42S	-0.268 ± 0.045
G31D	-0.385 ± 0.08
G35F	-0.183 ± 0.054
L32N	0.091 ± 0.19
F42K	-0.148 ± 0.043

Variant	abundance fitness
K22Q	-0.028 ± 0.043
A28N	-0.019 ± 0.079
F25G	-0.983 ± 0.072
N40D	0.016 ± 0.059
T36Y	0.026 ± 0.071
R20G	-0.938 ± 0.065
F16V	-0.671 ± 0.042
Q27L	-0.167 ± 0.035
G39L	-0.754 ± 0.076
Q44G	0.019 ± 0.025
E73G	-0.036 ± 0.05
L67A	-0.553 ± 0.12
K64T	-0.118 ± 0.045
G31C	-0.009 ± 0.042
Q44M	-0.145 ± 0.042
R20Y	-0.63 ± 0.17
G31Y	-0.213 ± 0.097
P4D	0.029 ± 0.057
F16L	-0.477 ± 0.035
L23P	-0.887 ± 0.13
R20N	-1.09 ± 0.4
L9T	-0.289 ± 0.048
L67M	0.006 ± 0.085
K58E	0.069 ± 0.039

Variant	abundance fitness
K14W	-0.182 ± 0.082
G39I	-0.808 ± 0.21
K58F	-0.163 ± 0.15
L37P	-0.293 ± 0.062
N59M	0.049 ± 0.045
L66Q	-0.233 ± 0.046
N59V	0.041 ± 0.033
T46I	-0.1 ± 0.053
S56K	-0.129 ± 0.047
D8G	-0.043 ± 0.027
Q27E	-0.004 ± 0.039
A52Q	0.056 ± 0.04
K58A	-0.042 ± 0.036
S77C	-0.184 ± 0.067
A33I	-0.138 ± 0.075
E1D	-0.014 ± 0.089
T36I	-0.184 ± 0.093
M60I	-0.907 ± 0.29
D8R	-0.234 ± 0.029
T46P	-0.697 ± 0.082
I47Q	-0.723 ± 0.094
R19T	-0.049 ± 0.047
K14E	0.018 ± 0.081
R49S	-0.175 ± 0.034

Variant	abundance fitness
A74Q	-0.046 ± 0.055
S43K	-0.132 ± 0.053
L67D	-0.759 ± 0.43
K69Q	-0.003 ± 0.087
D29L	-0.63 ± 0.053
T3M	0.117 ± 0.049
F16E	-0.618 ± 0.058
E10G	-0.223 ± 0.028
T46F	-0.325 ± 0.11
E1C	-0.035 ± 0.15
A74H	-0.032 ± 0.067
C48R	0.004 ± 0.027
Q11M	0.035 ± 0.046
D75F	-0.3 ± 0.1
F16R	-0.69 ± 0.04
K14D	-0.012 ± 0.2
K58Q	0.024 ± 0.042
D8C	-0.121 ± 0.057
A33S	-0.091 ± 0.039
F42L	0.053 ± 0.034
V30L	-0.306 ± 0.049
D29G	-0.239 ± 0.027
R19Q	-0.113 ± 0.048
E1M	0.05 ± 0.066

Variant	abundance fitness
S56C	-0.303 ± 0.056
Q15L	-0.067 ± 0.039
Y38S	-0.012 ± 0.032
N59G	-0.13 ± 0.029
R19K	0.035 ± 0.051
P65T	-0.059 ± 0.12
R20Q	-0.87 ± 0.16
N59A	0.007 ± 0.037
Q27P	-0.028 ± 0.047
L53K	-0.06 ± 0.06
A33H	-0.002 ± 0.075
T5M	-0.056 ± 0.044
K64L	-0.131 ± 0.037
T26H	-0.285 ± 0.12
A52R	-0.181 ± 0.029
L37C	-0.031 ± 0.053
K17C	-0.442 ± 0.061
K69C	-0.449 ± 0.16
A74Y	-0.151 ± 0.069
Q18Y	-0.295 ± 0.17
A52H	-0.213 ± 0.1
K22S	-0.131 ± 0.041
G24V	-0.814 ± 0.044
A74P	-0.274 ± 0.068

Variant	abundance fitness
T5F	-0.109 ± 0.094
F50Y	-0.412 ± 0.1
L37G	-0.328 ± 0.026
T36Q	-0.038 ± 0.045
L63R	-0.794 ± 0.048
T36G	-0.079 ± 0.027
E1I	-0.066 ± 0.17
E72R	-0.068 ± 0.03
F50A	-0.763 ± 0.065
I21T	-0.179 ± 0.053
Q27C	0.045 ± 0.054
A28F	-0.452 ± 0.1
Q18C	-0.157 ± 0.044
Q18M	-0.089 ± 0.045
C61K	-0.056 ± 0.053
D29F	-0.649 ± 0.098
L55H	-0.266 ± 0.08
C48T	-0.064 ± 0.037
T3A	-0.365 ± 0.042
A28Y	-0.117 ± 0.065
N40M	-0.107 ± 0.051
S76W	-0.163 ± 0.034
C48H	-0.029 ± 0.072
K69V	-0.273 ± 0.084

Variant	abundance fitness
S6P	0.059 ± 0.041
T5D	-0.042 ± 0.04
A13P	-0.731 ± 0.083
T3S	-0.042 ± 0.036
Q11P	-0.629 ± 0.08
L37Y	-0.157 ± 0.089
L67E	-0.936 ± 0.27
I47M	-0.58 ± 0.065
L37N	-0.121 ± 0.066
D29W	-0.588 ± 0.049
F57H	-0.015 ± 0.06
Q11H	0.017 ± 0.073
P65S	-0.38 ± 0.19
Q11W	-0.196 ± 0.033
L53E	-0.311 ± 0.053
S56P	0.044 ± 0.047
F50W	-0.749 ± 0.067
F57M	-0.046 ± 0.039
D29H	-0.249 ± 0.061
N68D	-0.182 ± 0.12
L55D	-0.369 ± 0.061
C61S	-0.165 ± 0.034
K64D	-1.06 ± 0.23

Source: the Human Domainome abundance scans (Beltran et al. 2025)
